Assay [1] concerns the target T1, FcγRIIIa (CD16) (V158) (Homo sapiens, UniProt P08637).
T1 construct: m21 joins both polymorphic variants; also called V158 variant of m21
In words: Lumit FcγRIIIa (V158) Binding Immunoassay (Promega), left panel FcγRIIIa (CD16) (V158), competition with Tracer-LgBiT for FcγR-SmBiT, falling luminescence means binding, n=1.
Description: (§1) Luminescence is measured on a microplate reader Infinite M200 Pro (Tecan). Graphs show n=1.
(§2) Luminescence was measured on a microplate reader Infinite M200 Pro (Tecan). Graphs show n=1.

For assay [2], the target named is T2, purified recombinant human Napi2b antigen consisting of Napi2b-extracellular-loop2 expressed as … (human, UniProt O95436 234-362, limits assumed).
T2 construct: Expressed in Expi-HEK293 cells; also called immobilized human NaPi2B; not shown: Fc part; 6-His tag
T2 sequence: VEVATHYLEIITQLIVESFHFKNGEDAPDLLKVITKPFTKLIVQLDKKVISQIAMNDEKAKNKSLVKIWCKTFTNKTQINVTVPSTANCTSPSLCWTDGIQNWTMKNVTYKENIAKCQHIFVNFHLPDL
In words: ELISA, coated Napi2b-extracellular-loop2-Fc-6-His, apparent KD from one-site fit. A general note: In an ELISA, binding on a coated surface is turned into a signal by an enzyme label.

Assay [3] concerns the target T3, human NaPi2b on NaPi2b-positive cell lines OVCAR-3 and HCC-78 (human, UniProt O95436 1-690).
T3 construct: Endogenous protein
T3 sequence: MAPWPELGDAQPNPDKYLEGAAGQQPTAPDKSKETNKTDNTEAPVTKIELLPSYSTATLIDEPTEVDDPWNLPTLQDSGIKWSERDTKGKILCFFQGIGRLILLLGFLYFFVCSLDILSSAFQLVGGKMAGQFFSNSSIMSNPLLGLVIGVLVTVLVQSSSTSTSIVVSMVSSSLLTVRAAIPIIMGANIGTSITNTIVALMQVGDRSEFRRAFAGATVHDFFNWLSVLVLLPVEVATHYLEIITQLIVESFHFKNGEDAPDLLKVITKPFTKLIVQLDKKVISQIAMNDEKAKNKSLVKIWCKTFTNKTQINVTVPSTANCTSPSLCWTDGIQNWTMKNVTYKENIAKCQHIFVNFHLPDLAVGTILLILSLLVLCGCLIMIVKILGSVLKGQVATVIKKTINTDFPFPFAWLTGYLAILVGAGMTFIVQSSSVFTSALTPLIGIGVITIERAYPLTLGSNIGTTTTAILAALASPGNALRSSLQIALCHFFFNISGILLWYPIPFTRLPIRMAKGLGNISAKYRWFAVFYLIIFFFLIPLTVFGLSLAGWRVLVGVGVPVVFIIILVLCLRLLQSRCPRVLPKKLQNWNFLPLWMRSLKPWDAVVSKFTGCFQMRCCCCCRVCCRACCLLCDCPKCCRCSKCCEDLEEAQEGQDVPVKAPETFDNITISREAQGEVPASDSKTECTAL
As to the kind of experiment: flow cytometry on NaPi2b-positive OVCAR-3 cells, Alexa-dye-labeled anti-human IgG H+L secondary antibody, MFI ratio normalized to the non-specific binding control. (In flow cytometry, cells or beads pass a laser one at a time.)
Description: (§3) To determine concentration-dependent binding, NaPi2b-positive OVCAR-3 and HCC-78 were incubated with antibodies in concentrations ranging from 0.00075 to 30 μg/ml, stained with an Alexa-dye-labeled anti-human IgG H+L secondary antibody (Thermo Fisher Scientific), and analyzed by flow cytometry. Mean fluorescence intensity (MFI) ratios were normalized to the non-specific binding control. The assay was performed in duplicates and data points were analyzed by a non-linear regression using a one-site specific binding model using Prism 9 software.

The target in assay [4] is T4, human Napi2b-mCherry on HEK293 cells (human, UniProt O95436 1-690).
T4 construct: also called Napi2b (SLC34A2); HEK293 cells overexpressing Napi2b
T4 sequence: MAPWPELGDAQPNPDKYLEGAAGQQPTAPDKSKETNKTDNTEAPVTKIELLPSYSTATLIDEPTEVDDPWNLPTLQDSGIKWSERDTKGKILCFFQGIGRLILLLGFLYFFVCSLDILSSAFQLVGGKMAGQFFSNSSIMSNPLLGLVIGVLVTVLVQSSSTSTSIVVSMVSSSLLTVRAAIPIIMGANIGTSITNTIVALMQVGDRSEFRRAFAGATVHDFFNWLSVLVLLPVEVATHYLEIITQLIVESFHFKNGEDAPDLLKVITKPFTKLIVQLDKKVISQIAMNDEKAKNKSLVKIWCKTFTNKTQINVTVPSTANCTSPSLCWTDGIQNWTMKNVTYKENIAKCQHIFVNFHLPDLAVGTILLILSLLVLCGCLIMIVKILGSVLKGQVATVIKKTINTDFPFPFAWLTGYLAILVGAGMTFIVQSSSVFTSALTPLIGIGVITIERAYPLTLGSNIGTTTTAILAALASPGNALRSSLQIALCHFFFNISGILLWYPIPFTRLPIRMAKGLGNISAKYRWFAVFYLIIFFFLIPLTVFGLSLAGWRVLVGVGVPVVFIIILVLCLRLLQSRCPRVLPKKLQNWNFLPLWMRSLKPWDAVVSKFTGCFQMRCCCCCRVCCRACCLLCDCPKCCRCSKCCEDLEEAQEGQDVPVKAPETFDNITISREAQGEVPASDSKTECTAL
As to the kind of experiment: flow cytometry on HEK293 cells stably expressing human full-length NaPi2b-mCherry, Alexa-dye anti-human IgG H+L secondary antibody, MFI ratio, one-site specific binding fit; the Kd table prints no unit, the concentration axis is in nM; second experiment on human cells, run beside the rat cells of FIG. 3D.
Excerpt: HEK293 cells stably overexpressing human and rat Napi2b were generated by stable integration of a human or rat full-length Napi2b-mCherry-(GGGS)3x-mCherry expression construct under control of a human EF1 promoter and a Puromycin-selection cassette under a CMV promoter into the parental HEK293 cell line. In brief, cells were transfected with the linearized plasmids using Lipfectamine 2000 (Thermo Fisher) and selected with Puromycin antibiotic. Cells were then single cell cloned in 96-well plates via serial dilution under continuous antibiotic selection. Clones were screened for target expression via flow cytometry and mCherry fluorescence via flow cytometry and fluorescence microscopy. Target- and mCherry-positive clones were expanded and used for further experiments. […] Binding of antibodies was investigated on mCherry-positive cells. Mean fluorescence intensity (MFI) ratios were normalized to the secondary antibody control. The assay was performed in duplicates and data points were analyzed by a non-linear regression using a one-site specific binding model to derive KD values using Prism 9 software.

Assay [5] concerns the target T5, FcγRIIIa (CD16) (F158) (Homo sapiens, UniProt P08637).
T5 construct: m21 joins both polymorphic variants; also called F158 variant of m21
In words: Lumit FcγRIIIa (F158) Binding Immunoassay (Promega), right panel FcγRIIIa (CD16) (F158), competition with Tracer-LgBiT for FcγR-SmBiT, falling luminescence means binding, n=1.
Description: as §1, §2

Assay [6] has as its target T3, human NaPi2b on NaPi2b-positive cell …. As to the kind of experiment: flow cytometry on OVCAR-3 cells; table column Binding KD (nmol/L), FACS (OVCAR-3).
The target is the same in assay [7]. As to the kind of experiment: flow cytometry on OVCAR-3 cells, one-site fit.
Description: as §3
Assay [8] addresses T6, recombinant hexameric C1q complement protein (human) (human, UniProt P02745 23-245; P02746 28-253; P02747 29-245).
T6 construct: also called complement factor C1q
As to the kind of experiment: HTRF Human C1q Binding Kit (Cisbio), HTRF ratio at 70 nM antibody with the diluent-only background subtracted.
Description: C1q interaction studies were performed using the HTRF Human C1q Binding Kit (Cisbio) according to the manufacturer's instructions. […] If the antibodies bind to human C1q, an anti-C1q antibody labelled with Europium cryptate (fluorescence donor) can come in close proximity to the fluorescence acceptor and fluorescence resonance energy transfer (FRET) is triggered. Fluorescence emission at 665 nm is measured on a microplate reader Infinite M200 Pro (Tecan)._Graphs show means of n=2±SD.
HTRF ratio was calculated by dividing the acceptor emission signal at 665 nm by the donor emission signal at 620 nm and multiplying by 10000.

In assay [9] the target is T7, human Napi2c-mCherry on HEK293 cells (human, UniProt Q8N130 1-599).
T7 construct: whole, on cells; also called Napi2c (SLC34A3); not shown: mCherry fusion
T7 sequence (looked up): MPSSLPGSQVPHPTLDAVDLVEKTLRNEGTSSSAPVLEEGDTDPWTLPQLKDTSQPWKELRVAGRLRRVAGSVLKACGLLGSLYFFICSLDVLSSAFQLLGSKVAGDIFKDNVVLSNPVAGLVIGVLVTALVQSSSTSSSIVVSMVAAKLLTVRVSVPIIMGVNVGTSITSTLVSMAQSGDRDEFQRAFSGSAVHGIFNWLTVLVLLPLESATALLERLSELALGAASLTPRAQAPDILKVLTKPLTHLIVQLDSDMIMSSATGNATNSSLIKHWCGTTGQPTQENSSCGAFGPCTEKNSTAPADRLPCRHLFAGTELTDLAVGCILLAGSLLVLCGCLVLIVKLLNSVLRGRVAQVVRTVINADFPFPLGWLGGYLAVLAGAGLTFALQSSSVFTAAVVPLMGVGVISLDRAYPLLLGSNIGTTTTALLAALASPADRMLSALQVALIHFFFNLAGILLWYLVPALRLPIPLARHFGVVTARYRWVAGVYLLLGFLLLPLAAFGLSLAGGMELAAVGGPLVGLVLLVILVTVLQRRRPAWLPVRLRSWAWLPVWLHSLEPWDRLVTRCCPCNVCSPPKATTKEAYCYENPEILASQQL
In words: flow cytometry on HEK293 cells expressing human Napi2c-mCherry (panel Napi2c-HEK293), MFI ratio to the non-specific binding control.

Assay [10] addresses T4, human Napi2b-mCherry on HEK293 cells. As to the kind of experiment: flow cytometry on HEK293 cells expressing human Napi2b-mCherry (panel Napi2b-HEK293), Alexa-dye anti-human IgG H+L secondary antibody, MFI ratio to the non-specific binding control.
Description: To determine concentration-dependent binding, HEK293 cells transiently or stably expressing human Napi2a-, Napi2b- and Napi2c-mCherry were incubated with antibodies or ADCs in concentrations ranging from 0.002 to 200 nM, stained with an Alexa-dye-labeled anti-human IgG H+L secondary antibody (Thermo Fisher Scientific), and analyzed by flow cytometry. Mean fluorescence intensity (MFI) ratios were normalized to the non-specific binding control. The assay was performed in duplicates and data points were analyzed by a non-linear regression using a one-site specific binding model using Prism 9 software.

T1 sequence (P08637 17-208 F176V limits assumed): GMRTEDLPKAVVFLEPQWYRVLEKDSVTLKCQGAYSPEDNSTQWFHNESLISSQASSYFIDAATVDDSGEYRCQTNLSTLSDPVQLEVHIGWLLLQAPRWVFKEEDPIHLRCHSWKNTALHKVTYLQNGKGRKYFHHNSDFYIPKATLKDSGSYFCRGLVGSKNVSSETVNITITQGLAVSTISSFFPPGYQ
T6 sequence (P02745 23-245 limits assumed, chain 1 of 3): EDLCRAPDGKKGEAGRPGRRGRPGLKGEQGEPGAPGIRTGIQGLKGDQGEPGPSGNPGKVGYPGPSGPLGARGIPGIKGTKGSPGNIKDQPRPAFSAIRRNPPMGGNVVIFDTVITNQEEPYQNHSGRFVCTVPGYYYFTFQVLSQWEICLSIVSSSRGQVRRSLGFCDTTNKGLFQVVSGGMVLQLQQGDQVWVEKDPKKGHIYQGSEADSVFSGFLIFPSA
T6 sequence (P02746 28-253 limits assumed, chain 2 of 3): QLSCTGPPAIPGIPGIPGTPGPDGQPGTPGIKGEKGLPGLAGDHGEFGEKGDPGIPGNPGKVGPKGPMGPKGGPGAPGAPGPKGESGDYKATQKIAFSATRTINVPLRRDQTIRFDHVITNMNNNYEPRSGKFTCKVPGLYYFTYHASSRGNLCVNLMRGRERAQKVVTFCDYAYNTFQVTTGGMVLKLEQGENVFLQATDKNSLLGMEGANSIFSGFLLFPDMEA
T6 sequence (P02747 29-245 limits assumed, chain 3 of 3): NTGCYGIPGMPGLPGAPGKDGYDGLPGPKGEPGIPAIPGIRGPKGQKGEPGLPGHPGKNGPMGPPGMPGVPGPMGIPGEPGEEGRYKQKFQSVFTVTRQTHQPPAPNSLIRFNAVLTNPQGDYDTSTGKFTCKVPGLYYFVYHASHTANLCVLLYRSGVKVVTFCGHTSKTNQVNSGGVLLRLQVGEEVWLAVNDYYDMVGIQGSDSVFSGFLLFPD
T5 sequence (P08637 17-208 limits assumed): as the sequence (P08637 17-208 F176V limits assumed) above, with V160F counted along it

B1: AV25 mAb, LALA-silenced (AV25 HC-LALA) (antibody, human IgG1, kappa, L234A L235A)
heavy: not shown
light: DIQMTQSPSSLSASVGDRVTITCSASQDIGNFLNWYQQKPGKTVKVLIYYASSLYSGVPSRFSGSGSGTDYTLTISSLQPEDFATYYCQQYSKLPLTFGQGTKLELKRTVAAPSVFIFPPSDEQLKSGTASVVCLLNNFYPREAKVQWKVDNALQSGNSQESVTEQDSKDSTYSLSSTLTLSKADYEKHKVYACEVTHQGLSSPVTKSFNRGEC
notes: also called unmodified AV25 mAb
The EC50 (read off the curve) is the concentration needed to bring the measured effect to its halfway point. Consider B1, for which the binding result in assay [1] is reported as “binds”; in [5], “binds”; in [8] it was “no binding (tested: 70 nM)”; in [9] it was “no binding (tested: 200 nM)”. The Kd in assay [2] worked out at 0.0106 µg/mL; in [4], 0.609 nM; in [6] it was 2.7 nM; in assay [7], 0.44 µg/mL. Moreover, the half-maximal effective concentration (EC50 (read off the curve)) in [3] was approximately 0.5 µg/mL; in assay [10], approximately 0.7 nM.

(Values after patent US20240182596A1 (TUBULIS, published 2024).)
